Source: patent US20240409645A1 (DUALYX, published 2024)

T1: human IL-2 receptor (IL-2Rα/IL-2Rβ/γc) (human, UniProt P01589 22-272; P14784 27-551; P31785 23-369)
T1 sequence 1: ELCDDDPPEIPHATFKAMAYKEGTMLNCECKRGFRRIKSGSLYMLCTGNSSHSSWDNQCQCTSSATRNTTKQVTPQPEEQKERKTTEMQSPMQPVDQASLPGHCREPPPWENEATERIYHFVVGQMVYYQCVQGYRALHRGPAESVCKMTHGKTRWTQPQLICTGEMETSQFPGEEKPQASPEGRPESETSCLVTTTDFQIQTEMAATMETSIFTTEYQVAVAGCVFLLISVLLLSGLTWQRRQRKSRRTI
T1 sequence 2: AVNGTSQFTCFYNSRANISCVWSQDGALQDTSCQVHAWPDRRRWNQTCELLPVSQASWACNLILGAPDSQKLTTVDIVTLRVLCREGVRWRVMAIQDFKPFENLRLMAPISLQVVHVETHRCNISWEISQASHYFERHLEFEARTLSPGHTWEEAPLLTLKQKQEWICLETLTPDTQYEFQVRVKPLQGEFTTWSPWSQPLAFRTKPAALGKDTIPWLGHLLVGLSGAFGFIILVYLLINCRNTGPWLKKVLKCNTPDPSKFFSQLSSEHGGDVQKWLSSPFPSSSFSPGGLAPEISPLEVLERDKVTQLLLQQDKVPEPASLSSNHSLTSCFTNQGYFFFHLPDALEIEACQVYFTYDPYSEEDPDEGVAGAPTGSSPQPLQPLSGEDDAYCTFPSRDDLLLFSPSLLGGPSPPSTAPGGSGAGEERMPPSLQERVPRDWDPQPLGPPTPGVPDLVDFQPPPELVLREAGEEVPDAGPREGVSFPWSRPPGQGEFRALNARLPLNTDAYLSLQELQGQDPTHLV
T1 sequence 3: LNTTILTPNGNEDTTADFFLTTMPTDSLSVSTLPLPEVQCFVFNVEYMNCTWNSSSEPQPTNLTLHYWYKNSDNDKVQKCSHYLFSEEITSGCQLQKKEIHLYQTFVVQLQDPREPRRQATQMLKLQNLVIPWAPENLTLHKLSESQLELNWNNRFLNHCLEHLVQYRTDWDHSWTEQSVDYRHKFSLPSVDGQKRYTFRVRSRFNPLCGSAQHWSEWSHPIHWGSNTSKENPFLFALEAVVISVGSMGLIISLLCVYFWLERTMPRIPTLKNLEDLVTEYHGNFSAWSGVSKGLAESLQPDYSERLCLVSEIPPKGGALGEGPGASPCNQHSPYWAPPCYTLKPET

B1: DC00090 (other)
chain 1: QLQLVESGGGLVQAGDSLRLSCAASGFNFGWHAMGWFRQAPGKEREFVATITWTGRDTYYADSVRGRFTISKDNAKDTLFLQMNSLRPDDTGVYYCAKARERATWAYSEDDCDYWGQGTQVTVSSDKTHTCPPCPAPEAAGGPSVFLFPPKPKDTLMISRTPEVTCVVVDVSHEDPEVKFNWYVDGVEVHNAKTKPREEQYNSTYRVVSVLTVLHQDWLNGKEYKCKVSNKALGAPIEKTISKAKGQPREPQVYTLPPSRDELTKNQVSLTCLVKGFYPSDIAVEWESNGQPENNYKTTPPVLDSDGSFLLYSKLTVDKSRWQQGNVFSCSVMHEALHNHYTQKSLSLSPGK
chain 2: EVQLVESGGGLVQTGGSLRLSCAASGGTFSRDAMAWFRQVPGKEREFVALISWSGATTNYADSVKGRFAISRDNGKNTVYLQMNRLKPADTAIYYCAADRRPMGSRSYFEPTEYDDWGQGTQVTVSSGGGGSGGGGSGGGGSQVQLVESGGGLVQPGGSLRLSCATSGFTFRNNFMSWVRQAPGKGLEWVSTISYGGESTTYAESVKGRFTISRDNAKNTLYLQMNNLKPEDTAVYYCAKATSYDSIRSGSRGQGTQVTVSSGGGGSGGGGSGGGGSQVQLVESGGGLVQAGGSLTLSCAAPGRTFGTDVVGWFRQAPGKEREFVASISRSGDGIYYDDSVKGRFTISRNNAWNTVNLQMNSLKVEDTAVYYCAAGDGWSTYDYWGQGTQVTVSSGGGGSGGGGSGGGGSDKTHTCPPCPAPEAAGGPSVFLFPPKPKDTLMISRTPEVTCVVVDVSHEDPEVKFNWYVDGVEVHNAKTKPREEQYNSTYRVVSVLTVLHQDWLNGKEYKCKVSNKALGAPIEKTISKAKGQPREPQVYTLPPSRDELTKNQVSLTCLVKGFYPSDIAVEWESNGQPENNYKTTPPVLDSDGSFFLYSRLTVDKSRWQQGNVFSCSVMHEALHNHYTQKSLSLSPGK
B2: DC00092 (other)
chain 1: B1 chain 1
chain 2: QVQLVESGGGLVQPGGSLRLSCATSGFTFRNNFMSWVRQAPGKGLEWVSTISYGGESTTYAESVKGRFTISRDNAKNTLYLQMNNLKPEDTAVYYCAKATSYDSIRSGSRGQGTQVTVSSGGGGSGGGGSGGGGSEVQLVESGGGLVQTGGSLRLSCAASGGTFSRDAMAWFRQVPGKEREFVALISWSGATTNYADSVKGRFAISRDNGKNTVYLQMNRLKPADTAIYYCAADRRPMGSRSYFEPTEYDDWGQGTQVTVSSGGGGSGGGGSGGGGSQVQLVESGGGLVQAGGSLTLSCAAPGRTFGTDVVGWFRQAPGKEREFVASISRSGDGIYYDDSVKGRFTISRNNAWNTVNLQMNSLKVEDTAVYYCAAGDGWSTYDYWGQGTQVTVSSGGGGSGGGGSGGGGSDKTHTCPPCPAPEAAGGPSVFLFPPKPKDTLMISRTPEVTCVVVDVSHEDPEVKFNWYVDGVEVHNAKTKPREEQYNSTYRVVSVLTVLHQDWLNGKEYKCKVSNKALGAPIEKTISKAKGQPREPQVYTLPPSRDELTKNQVSLTCLVKGFYPSDIAVEWESNGQPENNYKTTPPVLDSDGSFFLYSRLTVDKSRWQQGNVFSCSVMHEALHNHYTQKSLSLSPGK
B3: DC00086 (other)
chain 1: EVQLVESGGGLVQAGGSLRLSCAASGGSIYTYNMGWFRQAPGKEREFVAGTLWSGGDSVYADFAKGRFTLSRENAKNTLYLQMNSLKPEDTATYYCAIDPLSLTSDWRVDELSSWGKGTLVTVSSDKTHTCPPCPAPEAAGGPSVFLFPPKPKDTLMISRTPEVTCVVVDVSHEDPEVKFNWYVDGVEVHNAKTKPREEQYNSTYRVVSVLTVLHQDWLNGKEYKCKVSNKALGAPIEKTISKAKGQPREPQVYTLPPSRDELTKNQVSLTCLVKGFYPSDIAVEWESNGQPENNYKTTPPVLDSDGSFLLYSKLTVDKSRWQQGNVFSCSVMHEALHNHYTQKSLSLSPGK
chain 2: QVQLVESGGGLVQPGGSLRLSCATSGFTFRNNFMSWVRQAPGKGLEWVSTISYGGESTTYAESVKGRFTISRDNAKNTLYLQMNNLKPEDTAVYYCAKATSYDSIRSGSRGQGTQVTVSSGGGGSGGGGSGGGGSQVQLVESGGGLVQAGGSLTLSCAAPGRTFGTDVVGWFRQAPGKEREFVASISRSGDGIYYDDSVKGRFTISRNNAWNTVNLQMNSLKVEDTAVYYCAAGDGWSTYDYWGQGTQVTVSSGGGGSGGGGSGGGGSEVQLVESGGGLVQTGGSLRLSCAASGGTFSRDAMAWFRQVPGKEREFVALISWSGATTNYADSVKGRFAISRDNGKNTVYLQMNRLKPADTAIYYCAADRRPMGSRSYFEPTEYDDWGQGTQVTVSSGGGGSGGGGSGGGGSDKTHTCPPCPAPEAAGGPSVFLFPPKPKDTLMISRTPEVTCVVVDVSHEDPEVKFNWYVDGVEVHNAKTKPREEQYNSTYRVVSVLTVLHQDWLNGKEYKCKVSNKALGAPIEKTISKAKGQPREPQVYTLPPSRDELTKNQVSLTCLVKGFYPSDIAVEWESNGQPENNYKTTPPVLDSDGSFFLYSRLTVDKSRWQQGNVFSCSVMHEALHNHYTQKSLSLSPGK
B4: DC00091 (other)
chain 1: B1 chain 1
chain 2: B3 chain 2
B5: DC00087 (other)
chain 1: B3 chain 1
chain 2: B2 chain 2

Target: T1, human IL-2 receptor (IL-2Rα/IL-2Rβ/γc)
Assay: cell-based or functional assay

Binder	EC50 (nM) pSTAT5, NK, human PBMCs	EC50 (nM) pSTAT5, Treg, human PBMCs	Fold Max signal (% pSTAT5+) Treg/NK	Max signal (% pSTAT5+), NK	Max signal (% pSTAT5+), Treg	fold EC50 NK/Treg
B1	0.572 nM	< 0.1 pM	9 fold	2.67 % pSTAT5+	23.5 % pSTAT5+	> 5720 fold
B2	–	< 0.1 pM	6 fold	4.82 % pSTAT5+	26.7 % pSTAT5+	–
B3	0.187 nM	0.00441 nM	9 fold	4.9 % pSTAT5+	44.1 % pSTAT5+	42 fold
B4	0.307 nM	< 0.1 pM	5 fold	14.5 % pSTAT5+	67.7 % pSTAT5+	> 3070 fold
B5	0.00972 nM	–	3 fold	1.4 % pSTAT5+	4.37 % pSTAT5+	–
